Data reported in patent US20070243194A1.

Tests used:
[1] = molecular target: hIGF-1R-Fc mutant SD019 (A739W_I741F) (human) (UniProt P08069); assay: SPR, Fab on receptor-Fc held on M13-C06 chip
[2] = molecular target: hIGF-1R-Fc mutant SD008 (S258F) (human) (UniProt P08069); assay: SPR, Fab on receptor-Fc held on M13-C06 chip
Sequence of hIGF-1R-Fc mutant SD008 (S258F) (human) (P08069 31-933, stated change not applied): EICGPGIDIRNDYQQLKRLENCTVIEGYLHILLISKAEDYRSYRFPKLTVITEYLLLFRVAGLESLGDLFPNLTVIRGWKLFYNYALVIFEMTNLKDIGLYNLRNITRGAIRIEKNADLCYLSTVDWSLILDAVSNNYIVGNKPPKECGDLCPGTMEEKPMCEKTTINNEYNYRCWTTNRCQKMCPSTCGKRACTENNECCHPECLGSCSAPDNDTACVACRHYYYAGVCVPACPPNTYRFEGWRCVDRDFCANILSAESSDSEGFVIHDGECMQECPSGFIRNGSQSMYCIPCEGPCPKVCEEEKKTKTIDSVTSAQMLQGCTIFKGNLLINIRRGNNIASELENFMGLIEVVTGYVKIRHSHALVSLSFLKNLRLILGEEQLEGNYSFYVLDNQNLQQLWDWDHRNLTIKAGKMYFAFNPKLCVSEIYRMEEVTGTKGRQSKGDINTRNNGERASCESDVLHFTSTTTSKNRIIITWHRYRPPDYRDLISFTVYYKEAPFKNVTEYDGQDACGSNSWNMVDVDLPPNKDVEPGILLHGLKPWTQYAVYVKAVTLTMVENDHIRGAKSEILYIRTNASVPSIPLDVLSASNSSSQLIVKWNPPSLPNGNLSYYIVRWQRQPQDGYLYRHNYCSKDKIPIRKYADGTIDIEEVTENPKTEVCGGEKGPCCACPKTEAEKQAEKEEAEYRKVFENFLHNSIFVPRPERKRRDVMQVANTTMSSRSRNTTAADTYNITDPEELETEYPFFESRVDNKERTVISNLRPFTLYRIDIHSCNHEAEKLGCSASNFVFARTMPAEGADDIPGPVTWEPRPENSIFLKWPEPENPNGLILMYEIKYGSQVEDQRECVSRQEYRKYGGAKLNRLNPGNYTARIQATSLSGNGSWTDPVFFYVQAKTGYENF

Sequence of hIGF-1R-Fc mutant SD019 (A739W_I741F) (human) (P08069 31-933, stated change not applied): as above

Biacore Relative RUmax [1]: 1.9
Biacore Relative RUmax [2]: 1.5
B1: M13-C06 Fab (Fab, V domains shown)
VH: EVQLLESGGGLVQPGGSLRLSCAASGFTFSIYRMQWVRQAPGKGLEWVSGISPSGGTTWYADSVKGRFTISRDNSKNTLYLQMNSLRAEDTAVYYCARWSGGSGYAFDIWGQGTMVTVSS
VL: DIQMTQSPLSLSASVGDRVTITCQASRDIRNYLNWYQQKPGKAPKLLIYDASSLQTGVPSRFGGSGSGTDFSFTIGSLQPEDIATYYCQQFDSLPHTFGQGTKLEIK
